In PMC9385563 (Molecules and Cells, 2022):
Changes are numbered by the printed parent chain. Names may count otherwise.

Legend:
ABCB6-∆TMD0 [1] = target: T1, ABCB6-∆TMD0 (Homo sapiens, UniProt Q9NP58, DEL318-324); assay: microscale thermophoresis, initial fluorescence change; assay type: binding
T1 sequence (Q9NP58 with tags, fused parts or gaps DEL318-324): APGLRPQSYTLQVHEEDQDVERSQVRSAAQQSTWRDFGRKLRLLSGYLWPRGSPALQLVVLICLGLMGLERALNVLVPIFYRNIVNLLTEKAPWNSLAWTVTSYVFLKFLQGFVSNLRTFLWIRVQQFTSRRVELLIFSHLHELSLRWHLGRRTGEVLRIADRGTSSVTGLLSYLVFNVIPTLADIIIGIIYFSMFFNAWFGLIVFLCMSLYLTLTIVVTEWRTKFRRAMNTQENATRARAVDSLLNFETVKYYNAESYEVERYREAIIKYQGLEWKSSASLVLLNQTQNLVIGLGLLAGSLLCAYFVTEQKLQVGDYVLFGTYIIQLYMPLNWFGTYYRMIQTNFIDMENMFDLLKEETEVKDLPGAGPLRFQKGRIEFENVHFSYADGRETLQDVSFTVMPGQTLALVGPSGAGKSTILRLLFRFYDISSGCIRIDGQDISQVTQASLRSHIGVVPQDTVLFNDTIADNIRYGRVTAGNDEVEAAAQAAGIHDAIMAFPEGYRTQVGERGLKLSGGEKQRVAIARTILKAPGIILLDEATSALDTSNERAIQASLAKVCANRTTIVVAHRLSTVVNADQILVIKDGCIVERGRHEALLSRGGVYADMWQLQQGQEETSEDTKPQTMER

ABCB6-∆TMD0 [2] = target: T2, ABCB6-∆TMD0 (Homo sapiens, UniProt Q9NP58); assay: as above; assay type: binding
T2 sequence (Q9NP58 206-842): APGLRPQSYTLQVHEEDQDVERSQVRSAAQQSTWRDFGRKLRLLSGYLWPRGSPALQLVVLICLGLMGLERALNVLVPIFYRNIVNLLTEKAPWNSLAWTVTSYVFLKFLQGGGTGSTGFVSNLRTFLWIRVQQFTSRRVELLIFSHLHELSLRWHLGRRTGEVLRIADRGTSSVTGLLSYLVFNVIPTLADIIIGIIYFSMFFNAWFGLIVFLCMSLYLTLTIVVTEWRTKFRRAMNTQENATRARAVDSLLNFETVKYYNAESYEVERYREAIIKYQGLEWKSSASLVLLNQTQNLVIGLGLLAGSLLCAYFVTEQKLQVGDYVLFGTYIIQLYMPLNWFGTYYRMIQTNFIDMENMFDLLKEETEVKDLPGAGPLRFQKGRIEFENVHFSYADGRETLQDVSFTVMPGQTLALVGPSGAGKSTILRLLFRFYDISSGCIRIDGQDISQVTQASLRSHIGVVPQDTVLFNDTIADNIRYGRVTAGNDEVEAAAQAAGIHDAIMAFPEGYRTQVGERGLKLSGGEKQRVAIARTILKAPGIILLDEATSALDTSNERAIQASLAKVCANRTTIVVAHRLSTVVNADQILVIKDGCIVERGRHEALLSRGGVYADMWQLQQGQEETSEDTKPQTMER

ABCB6-∆TMD0 [3] = target: T3, ABCB6-∆TMD0 (Homo sapiens, UniProt Q9NP58, R435A/R439A/R552A); assay: as above; assay type: binding
T3 sequence (Q9NP58 206-842 R435A/R439A/R552A): T2 sequence (Q9NP58 206-842) with R230A, R234A, R347A

cryo-EM structure = target: the molecule itself; assay: cryo-EM structure
purified protein [4] = substrate: CC1=C(CCC(=O)O)c2cc3nc(cc4[nH]c(cc5[nH]c(cc1n2)c(C)c5CCC(=O)O)c(CCC(=O)O)c4C)C(CCC(=O)O)=C3C; assay: purified protein; settings: Km from stimulation of ATP hydrolysis, 37°C, Cymal-6/CHS
purified protein [5] = substrate: C=CC1=C(C)C2=Cc3c(C=C)c(C)c4[n]3[Fe]([Cl])[n]3c(c(C)c(CCC(=O)O)c3=CC3=NC(=C4)C(C)=C3CCC(=O)O)=CC1=N2; assay: purified protein; settings: Km from stimulation of ATP hydrolysis, 37°C

Molecule: CC1=C(CCC(=O)O)c2cc3nc(cc4[nH]c(cc5[nH]c(cc1n2)c(C)c5CCC(=O)O)c(CCC(=O)O)c4C)C(CCC(=O)O)=C3C [CPIII]
- Kd (ABCB6-∆TMD0 [1]): 14.1 ± 0.9 µM
- Kd (ABCB6-∆TMD0 [2]): 8.2 ± 0.1 µM
- Kd (ABCB6-∆TMD0 [3]): 17.8 ± 3 µM

B1: ABCB6-∆TMD0 (core region of human ABCB6, residues 206-842) (domain or fragment, UniProt Q9NP58 206-842, looked up)
chain: T2 sequence (Q9NP58 206-842)
- stoichiometry N (cryo-EM structure): 2
- Km (purified protein [4]): 19 ± 3.7 µM
- kcat (purified protein [4]): 25 min^–1
- Km (purified protein [5]; with 1 mM GSH, Cymal-6/CHS): 3 ± 0.3 µM
- kcat (purified protein [5]; with 1 mM GSH, Cymal-6/CHS): 36 min^–1

B2: ABCB6-∆TMD0 (Homo sapiens; Y550A) (protein)
chain: T2 sequence (Q9NP58 206-842) with Y345A
- Km (purified protein [5]; with GSH): 10 µM
